Laboratory results published in publication PMC8307404, “Crystal Structure-Guided Design of Bisubstrate Inhibitors and Photoluminescent Probes for Protein Kinases of the PIM Family” (Molecules, 2021).
Square brackets hold non-standard residues; d marks the D form. Peptide text beside a SMILES is read from it. * marks the point of attachment. X3 = O=C(CCCCCNCc1nc2c(sc3cc(Br)cnc32)c(=O)[nH]1)*

Experiments:
Assay in all cases: Kinase profiling (radiometric filter-binding)
Assay type in all cases: biochemical
EPH-B2 = target: T1, EPH-B2 (Homo sapiens, UniProt P29323); conditions: EPH-B2, 1 µM inhibitor; read-out: Residual activity, %
T1 sequence (P29323 19-1055): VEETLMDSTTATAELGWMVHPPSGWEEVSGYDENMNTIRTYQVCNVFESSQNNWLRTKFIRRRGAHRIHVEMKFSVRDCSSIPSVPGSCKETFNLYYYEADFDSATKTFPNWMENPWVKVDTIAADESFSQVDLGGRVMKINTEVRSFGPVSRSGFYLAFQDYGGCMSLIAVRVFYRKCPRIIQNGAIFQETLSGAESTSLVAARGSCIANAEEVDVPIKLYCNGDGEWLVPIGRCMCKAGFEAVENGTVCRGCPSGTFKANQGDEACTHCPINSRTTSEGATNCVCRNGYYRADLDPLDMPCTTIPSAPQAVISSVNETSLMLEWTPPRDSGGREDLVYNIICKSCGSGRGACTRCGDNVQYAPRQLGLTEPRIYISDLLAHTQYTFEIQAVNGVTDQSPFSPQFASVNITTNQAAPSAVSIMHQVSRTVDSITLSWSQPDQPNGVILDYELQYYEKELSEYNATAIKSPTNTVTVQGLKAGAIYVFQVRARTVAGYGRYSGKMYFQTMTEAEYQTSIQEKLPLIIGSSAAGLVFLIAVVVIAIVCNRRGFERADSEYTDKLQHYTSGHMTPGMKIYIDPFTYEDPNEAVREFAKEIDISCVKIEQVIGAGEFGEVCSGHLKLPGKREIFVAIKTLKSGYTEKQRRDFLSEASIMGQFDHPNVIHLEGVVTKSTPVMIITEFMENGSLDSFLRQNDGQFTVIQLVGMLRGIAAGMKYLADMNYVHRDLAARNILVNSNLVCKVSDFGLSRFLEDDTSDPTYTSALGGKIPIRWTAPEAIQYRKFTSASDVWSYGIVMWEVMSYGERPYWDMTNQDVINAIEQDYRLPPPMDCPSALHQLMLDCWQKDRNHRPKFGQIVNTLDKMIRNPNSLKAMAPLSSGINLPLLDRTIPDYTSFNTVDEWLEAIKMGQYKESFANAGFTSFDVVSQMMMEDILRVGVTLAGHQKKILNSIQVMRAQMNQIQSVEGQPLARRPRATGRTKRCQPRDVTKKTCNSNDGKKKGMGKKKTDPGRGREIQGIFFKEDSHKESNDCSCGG
How it was run: (§1)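 Human kinases were tested in a radiometric filter-binding panel with ATP at or below each enzyme's KM. Inhibitors were present at a final concentration of 1 µM, and residual activity was reported as a percentage of the uninhibited control.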

ERK5 = ERK5 (Homo sapiens, UniProt Q13164); conditions: ERK5, 1 µM inhibitor; read-out: Residual activity, %
How it was run: as §1

MKK6 = target: T2, MKK6 (Homo sapiens, UniProt P52564); conditions: MKK6, 1 µM inhibitor; read-out: Residual activity, %
T2 sequence (P52564 1-334): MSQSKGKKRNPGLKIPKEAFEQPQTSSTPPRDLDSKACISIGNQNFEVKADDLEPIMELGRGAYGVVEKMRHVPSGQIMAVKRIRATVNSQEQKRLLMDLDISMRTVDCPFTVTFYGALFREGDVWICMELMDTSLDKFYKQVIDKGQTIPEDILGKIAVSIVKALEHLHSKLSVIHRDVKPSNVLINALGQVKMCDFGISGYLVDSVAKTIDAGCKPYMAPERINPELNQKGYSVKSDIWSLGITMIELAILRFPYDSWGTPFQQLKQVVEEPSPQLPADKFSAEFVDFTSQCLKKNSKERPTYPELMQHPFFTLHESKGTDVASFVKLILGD
How it was run: as §1

MNK2 = MNK2 (Homo sapiens, UniProt Q9HBH9); conditions: MNK2, 1 µM inhibitor; read-out: Residual activity, %
How it was run: as §1

SIK2 = SIK2 (Homo sapiens, UniProt Q9H0K1); conditions: SIK2, 1 µM inhibitor; read-out: Residual activity, %
How it was run: as §1

ZAP70 = target: T3, ZAP70 (Homo sapiens, UniProt P43403); conditions: ZAP70, 1 µM inhibitor; read-out: Residual activity, %
T3 sequence (P43403 1-619): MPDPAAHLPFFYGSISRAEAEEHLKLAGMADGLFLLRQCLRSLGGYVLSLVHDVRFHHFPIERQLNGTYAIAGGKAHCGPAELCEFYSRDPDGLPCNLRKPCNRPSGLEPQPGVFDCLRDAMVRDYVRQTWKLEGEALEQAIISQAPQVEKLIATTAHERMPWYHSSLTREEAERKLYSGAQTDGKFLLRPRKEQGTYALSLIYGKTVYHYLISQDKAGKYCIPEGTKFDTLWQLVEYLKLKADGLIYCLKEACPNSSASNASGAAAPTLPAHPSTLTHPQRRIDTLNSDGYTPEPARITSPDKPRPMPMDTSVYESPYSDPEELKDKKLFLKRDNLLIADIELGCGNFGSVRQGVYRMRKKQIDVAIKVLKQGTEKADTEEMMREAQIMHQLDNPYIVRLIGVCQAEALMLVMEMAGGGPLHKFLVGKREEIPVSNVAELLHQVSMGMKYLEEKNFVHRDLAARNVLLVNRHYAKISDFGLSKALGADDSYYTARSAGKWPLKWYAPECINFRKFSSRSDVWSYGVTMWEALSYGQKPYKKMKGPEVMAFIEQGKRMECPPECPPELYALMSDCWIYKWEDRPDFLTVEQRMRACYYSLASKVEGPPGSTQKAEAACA
How it was run: as §1

Sequence of SIK2 (Q9H0K1 whole entry): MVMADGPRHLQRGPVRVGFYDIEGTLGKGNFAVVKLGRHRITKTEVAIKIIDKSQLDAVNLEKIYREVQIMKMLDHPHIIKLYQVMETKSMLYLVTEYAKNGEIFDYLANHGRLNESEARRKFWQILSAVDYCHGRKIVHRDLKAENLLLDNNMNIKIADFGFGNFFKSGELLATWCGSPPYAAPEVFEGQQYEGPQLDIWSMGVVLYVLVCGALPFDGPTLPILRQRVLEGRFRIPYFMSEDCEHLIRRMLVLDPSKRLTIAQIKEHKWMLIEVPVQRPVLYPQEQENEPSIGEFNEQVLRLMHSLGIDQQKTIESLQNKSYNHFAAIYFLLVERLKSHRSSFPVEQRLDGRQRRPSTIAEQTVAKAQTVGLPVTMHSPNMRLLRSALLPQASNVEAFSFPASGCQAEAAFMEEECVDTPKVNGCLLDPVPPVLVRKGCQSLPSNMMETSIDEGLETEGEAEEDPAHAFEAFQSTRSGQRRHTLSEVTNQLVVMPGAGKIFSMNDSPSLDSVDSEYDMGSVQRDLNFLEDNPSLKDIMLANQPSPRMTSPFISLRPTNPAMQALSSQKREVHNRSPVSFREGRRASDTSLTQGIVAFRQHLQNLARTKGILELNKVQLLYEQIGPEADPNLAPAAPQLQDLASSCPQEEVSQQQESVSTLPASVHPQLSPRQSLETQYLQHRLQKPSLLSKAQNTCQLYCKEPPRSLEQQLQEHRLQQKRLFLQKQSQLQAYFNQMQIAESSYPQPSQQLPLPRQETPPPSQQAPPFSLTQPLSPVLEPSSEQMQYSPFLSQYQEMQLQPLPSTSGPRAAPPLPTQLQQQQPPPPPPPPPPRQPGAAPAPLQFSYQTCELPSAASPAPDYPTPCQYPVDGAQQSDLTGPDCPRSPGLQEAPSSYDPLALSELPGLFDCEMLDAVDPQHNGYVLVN
Sequence of MNK2 (Q9HBH9 whole entry): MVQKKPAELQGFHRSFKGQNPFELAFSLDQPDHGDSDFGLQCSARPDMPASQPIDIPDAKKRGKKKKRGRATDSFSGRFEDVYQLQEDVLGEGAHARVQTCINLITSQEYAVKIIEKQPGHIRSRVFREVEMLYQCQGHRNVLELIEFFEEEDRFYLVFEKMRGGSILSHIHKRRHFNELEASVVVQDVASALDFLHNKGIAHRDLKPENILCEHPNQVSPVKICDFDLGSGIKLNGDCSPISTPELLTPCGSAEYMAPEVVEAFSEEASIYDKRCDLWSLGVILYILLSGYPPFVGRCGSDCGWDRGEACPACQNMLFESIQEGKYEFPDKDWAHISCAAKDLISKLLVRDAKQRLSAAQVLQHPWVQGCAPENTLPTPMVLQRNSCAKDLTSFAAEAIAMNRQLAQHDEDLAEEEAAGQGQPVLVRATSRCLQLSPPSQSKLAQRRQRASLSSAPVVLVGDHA
Sequence of ERK5 (Q13164 whole entry): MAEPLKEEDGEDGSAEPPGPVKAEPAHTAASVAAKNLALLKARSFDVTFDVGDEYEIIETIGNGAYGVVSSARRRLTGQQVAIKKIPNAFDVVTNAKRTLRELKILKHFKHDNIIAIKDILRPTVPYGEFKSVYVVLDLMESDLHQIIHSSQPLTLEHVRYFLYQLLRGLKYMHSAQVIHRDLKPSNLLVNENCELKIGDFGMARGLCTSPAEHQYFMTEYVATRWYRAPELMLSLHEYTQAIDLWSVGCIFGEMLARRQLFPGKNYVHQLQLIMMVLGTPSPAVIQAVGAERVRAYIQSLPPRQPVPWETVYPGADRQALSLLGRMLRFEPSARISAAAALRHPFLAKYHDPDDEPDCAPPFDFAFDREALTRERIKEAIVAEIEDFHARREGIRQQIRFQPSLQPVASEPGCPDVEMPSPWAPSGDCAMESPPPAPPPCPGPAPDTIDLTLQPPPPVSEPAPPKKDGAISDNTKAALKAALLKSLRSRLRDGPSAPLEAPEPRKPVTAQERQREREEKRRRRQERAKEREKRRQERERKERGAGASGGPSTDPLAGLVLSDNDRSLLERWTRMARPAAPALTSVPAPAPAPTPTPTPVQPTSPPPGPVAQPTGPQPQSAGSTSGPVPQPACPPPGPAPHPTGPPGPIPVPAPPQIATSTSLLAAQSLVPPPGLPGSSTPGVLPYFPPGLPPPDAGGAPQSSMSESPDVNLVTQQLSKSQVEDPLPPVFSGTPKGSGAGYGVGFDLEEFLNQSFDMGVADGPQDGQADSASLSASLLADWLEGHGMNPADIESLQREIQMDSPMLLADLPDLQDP

| SMILES | remaining activity at 1 µM (EPH-B2) | remaining activity at 1 µM (ERK5) | remaining activity at 1 µM (MKK6) | remaining activity at 1 µM (MNK2) | remaining activity at 1 µM (SIK2) | remaining activity at 1 µM (ZAP70) |
| --- | --- | --- | --- | --- | --- | --- |
| N=C(N)NCCC[C@@H](NC(=O)CCCCCNC(=O)Cn1cnc2c(I)c(I)c(I)c(I)c21)C(=O)N[C@H](CCCNC(=N)N)C(=O)N[C@H](CCCNC(=N)N)C(=O)N[C@H](CCCNC(=N)N)C(=O)N[C@H](CCCNC(=N)N)C(=O)N[C@H](CCCNC(=N)N)C(=O)N[C@H](CCCCN)C(N)=O [ARC-3125, TIBI-CH2-C(=O)-Ahx-(D-Arg)6-D-Lys-NH2] | 102 ± 8% | 47 ± 1% | 110 ± 10% | 19 ± 4% | 34 ± 4% | 105 ± 8% |
| N=C(N)NCCC[C@@H](NC(=O)CNC(=O)[C@@H](CCCNC(=N)N)NC(=O)[C@@H](CCCNC(=N)N)NC(=O)CCCCCCCNCc1nc2c(sc3cc(Br)cnc32)c(=O)[nH]1)C(=O)N[C@H](CCCCN)C(N)=O [Compound 1, BPTP-Aoc-(D-Arg)2-Gly-D-Arg-D-Lys-NH2] | 95 ± 16% | 111 ± 9% | 122 ± 2% | 80 ± 3% | 110 ± 5% | 95 ± 21% |
| N=C(N)NCCC[C@@H](NC(=O)CNC(=O)[C@@H](CCCNC(=N)N)NC(=O)[C@@H](CCCNC(=N)N)NC(=O)CCCCCCCNCc1nc2c(sc3ccc(Br)cc32)c(=O)[nH]1)C(=O)N[C@H](CCCCN)C(N)=O [Compound 2, BBTP-Aoc-(D-Arg)2-Gly-D-Arg-D-Lys-NH2] | 100 ± 5% | 77 ± 5% | 121 ± 3% | 47 ± 2% | 107 ± 10% | 87 ± 7% |
| N=C(N)NCCC[C@@H](NC(=O)CCCCCNCc1nc2c(sc3cc(Br)cnc32)c(=O)[nH]1)C(=O)N[C@H](CCCNC(=N)N)C(=O)N[C@H](CCCNC(=N)N)C(=O)N[C@H](CCCNC(=N)N)C(=O)N[C@H](CCCNC(=N)N)C(=O)N[C@H](CCCNC(=N)N)C(=O)N[C@H](CCCCN)C(N)=O [ARC-3126, BPTP-Ahx-(D-Arg)6-D-Lys-NH2] (X3-[dR][dR][dR][dR][dR][dR][dK]-NH2) | 107 ± 4% | 92 ± 1% | 105 ± 1% | 84 ± 17% | 109 ± 6% | 83 ± 30% |
| N=C(N)NCCC[C@@H](NC(=O)CNC(=O)[C@@H](CCCNC(=N)N)NC(=O)[C@@H](CCCNC(=N)N)NC(=O)Cn1cc(CNCc2nc3c(sc4ccc(Br)cc43)c(=O)[nH]2)nn1)C(=O)N[C@H](CCCCN)C(N)=O [Compound 3, BBTP-Amt-(D-Arg)2-Gly-D-Arg-D-Lys-NH2] | 96 ± 14% | 93 ± 4% | 126 ± 10% | 96 ± 10% | 68 ± 3% | 53 ± 14% |
